Results: article PMC8509397

Target: T1, IFNγ cellular receptor (IFNGR1 and IFNGR2) on WISH cells (human (endogenous in WISH cells)) (UniProt P15260)
T1 sequence 1: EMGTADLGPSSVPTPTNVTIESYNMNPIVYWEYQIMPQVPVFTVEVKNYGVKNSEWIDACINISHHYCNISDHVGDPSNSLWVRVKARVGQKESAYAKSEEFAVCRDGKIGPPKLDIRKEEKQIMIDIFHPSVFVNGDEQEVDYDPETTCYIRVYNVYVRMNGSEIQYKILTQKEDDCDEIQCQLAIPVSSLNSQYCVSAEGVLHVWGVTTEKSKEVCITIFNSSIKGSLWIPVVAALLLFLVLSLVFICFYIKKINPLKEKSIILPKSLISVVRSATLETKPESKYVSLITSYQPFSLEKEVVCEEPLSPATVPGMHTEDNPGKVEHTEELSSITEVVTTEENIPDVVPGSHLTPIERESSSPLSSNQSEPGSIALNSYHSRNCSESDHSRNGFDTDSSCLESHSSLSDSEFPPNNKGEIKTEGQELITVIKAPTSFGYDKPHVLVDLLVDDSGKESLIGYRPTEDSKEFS
T1 sequence 2: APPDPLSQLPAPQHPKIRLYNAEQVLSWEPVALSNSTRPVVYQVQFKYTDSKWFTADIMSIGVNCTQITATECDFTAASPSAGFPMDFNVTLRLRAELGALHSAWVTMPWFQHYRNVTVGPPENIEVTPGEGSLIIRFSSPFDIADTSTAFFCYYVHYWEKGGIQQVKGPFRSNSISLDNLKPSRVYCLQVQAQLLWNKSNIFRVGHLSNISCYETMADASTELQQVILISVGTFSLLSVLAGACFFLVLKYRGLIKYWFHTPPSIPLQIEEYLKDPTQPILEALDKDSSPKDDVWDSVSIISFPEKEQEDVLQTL

recombinant interferon-gamma (IFNγ) (from UniProt P01579 24-161) (ligand)
antiproliferative activity of IFNγ (IDO induction, modified kynurenine bioassay) on WISH cells, 100 IU/mL IFNγ with LMWH (Fraxiparine): LMWH concentration that reduces the activity to 50% of control: 35 IU/mL | inhibition of IDO induction by 100 IU/mL IFNγ on WISH cells with LMWH (Fraxiparine) 1.5 to 150 anti-Xa IU/mL; highest value at 150 IU/mL: < 80%
